This data set deals with the molecule itself. Kind of data set: X-ray crystallography, homodimer in the asymmetric unit.

B1: isopentenyl phosphate kinase (IPK) from Methanocaldococcus jannaschii (enzyme)
chain: MLTILKLGGSILSDKNVPYSIKWDNLERIAMEIKNALDYYKNQNKEIKLILVHGGGAFGHPVAKKYLKIEDGKKIFINMEKGFWEIQRAMRRFNNIIIDTLQSYDIPAVSIQPSSFVVFGDKLIFDTSAIKEMLKRNLVPVIHGDIVIDDKNGYRIISGDDIVPYLANELKADLILYATDVDGVLIDNKPIKRIDKNNIYKILNYLSGSNSIDVTGGMKYKIEMIRKNKCRGFVFNGNKANNIYKALLGEVEGTEIDFSE
notes: The crystal holds a homodimer, two molecules in the asymmetric unit; also called IPK-Mjannaschii; IPK-Mj
On to B1, for which the binding result is on record as “binds”.
